Results on two substances are retold here after PMC13044992.

For experiment [1], the target named is S100i1 from Danio rerio (wild type) (Danio rerio) (UniProt Q6XG62). As to the kind of experiment: crystal structure; sitting-drop vapor diffusion at 291 K, 10 mg/mL protein; apo S100i1 (0.2 M Li sulfate, Tris-HCl pH 8.5, 25% PEG 4000), Na+-S100i1 (0.2 M Na acetate, Tris-HCl pH 9.5, 35% PEG 4000), Mg2+-S100i2 (0.2 M MgCl2, Tris-HCl pH 8.5, 30% PEG 4000).
Experiment [2] shares this target. As to the kind of experiment: SEC; 24 mL Superdex 75 Increase 10/300 GL, 20 mM Tris-HCl pH 7.5, 100 mM NaCl; self-association (homodimer). Background: Size exclusion chromatography separates by hydrodynamic size, large species first.
Experiment [3] concerns the target S100i2 from Danio rerio (wild type) (Danio rerio) (UniProt A3FKT8). Kind of experiment: crystal structure; sitting-drop vapor diffusion at 291 K, 10 mg/mL protein; apo S100i1 (0.2 M Li sulfate, Tris-HCl pH 8.5, 25% PEG 4000), Na+-S100i1 (0.2 M Na acetate, Tris-HCl pH 9.5, 35% PEG 4000), Mg2+-S100i2 (0.2 M MgCl2, Tris-HCl pH 8.5, 30% PEG 4000).
The target is the same in experiment [4]. Kind of experiment: SEC; 24 mL Superdex 75 Increase 10/300 GL, 20 mM Tris-HCl pH 7.5, 100 mM NaCl; self-association (homodimer).

By stoichiometry N is commonly meant the number of molecules, sites or subunits per partner or assembly. For “S100i1 from Danio rerio (wild type) (from UniProt Q6XG62 1-95) (natural protein)”, the stoichiometry N in experiment [1] and in experiment [2] was 2 in each case.

Turning to “S100i2 from Danio rerio (wild type) (from UniProt A3FKT8 1-97) (natural protein)”, the stoichiometry N in experiment [3] and in experiment [4] was 2 in each case.
